Publication PMC2912373, “Low-Density Lipoprotein Receptor-Related Protein 1 (LRP1) Mediates Neuronal Aβ42 Uptake and Lysosomal Trafficking” (PLoS ONE, 2010)
“Also recorded” adds a separate entry of the source.

Columns and labels:
LRP1 = conditions: ref [23], [36]; cited from earlier work
N2a-mLRP4 cells = assay: MTS redox cell viability assay in Aβ42 treated cells; format: cell-based, mouse; conditions: 3 µM Aβ42, 72 h; only in mLRP4-expressing cells, not N2a-pcDNA3; p<0.05, n = 3
Experimental: We hypothesized that Aβ42 treatment might increase cell death in mLRP4-overexpressing N2a cells because we detected increased co-localization of Aβ42 with lysosomes in these cells. We treated N2a-pcDNA3 and N2a-mLRP4 cells with Aβ42 for 24, 48 and 72 h and assessed cell viability by reduction of the MTS redox dye. Aβ42 was prepared identically to the FAM-Aβ42 experiments.
Figure 5 Increased susceptibility to Aβ42-mediated cell death in LRP1 minireceptor-expressing cells. N2a-pcDNA3 and N2a-mLRP4 cells were incubated with increasing concentrations of Aβ42 for 24, 48 and 72 h and cell viability was assessed by the reduction of the MTS dye.
N2a-pcDNA3 and N2a-mLRP4 cells were plated at 16,250 cells/cm^2 in 48-well plates and grown overnight. Serial dilutions of freshly prepared synthetic Aβ42 were prepared by diluting the Aβ42 stock with internalization media. Culture media was then replaced with media containing 0, 1 or 3 µM Aβ42 and cells were incubated for an additional 24, 48 or 72 h. Cell viability was measured by using one-solution cell titer kit at each corresponding time point (Promega, Madison, WI). After 4 h labeling, the soluble reduced formazan product was quantified by directly reading the plate in a Bio-Tek plate reader. After background subtraction from media-only containing wells, results were represented as % of the corresponding control and untreated N2a cells.

N2a-mLRP4-Tless cells = assay: Kinetic analysis of 125I-RAP endocytosis; format: cell-based, mouse; conditions: 5 nM 125I-RAP, 4°C 60 min, then 37°C; internalized/total cell-associated ligand; triple determinations
Experimental: Figure 4 LRP1 endocytosis is required for Aβ42 uptake and accumulation in N2a cells. A, clathrin heavy chain (CHC) knockdown increases cell surface levels of mLRP4. N2a-mLRP4 cells were infected with CHC shRNA lentivirus or pLKO, control lentivirus. The levels of cell surface and total pools of mLRP4 were determined by flow cytometric analyses with anti-HA antibody in non-permeabilized and saponin-treated cells, respectively. The surface-to-total ratio were calculated and plotted as fold-change to control-infected cells. Right panel, decreased CHC levels and normal mLRP4 levels in transduced N2a-mLRP4 cells were verified by Western blot from sister cultures. […] The intracellular level of FAM-Aβ42 was determined by flow cytometric analyses of pronase-treated cells. […] The cell surface and total pools of the LRP1 minireceptor were determined by flow cytometric analyses with anti-HA antibody as in A in N2a-mLRP4 cells and in N2a cells stably transfected with a deletion variant lacking the cytoplasmic tail of mLRP4 (mLRP4-Tless). The surface-to-total ratios were then calculated and plotted as fold-change to N2a-mLRP4 cells. […] At each time point, the amounts of ligand that is either internalized or that remains at the cell surface were determined and the ratios of internalized to total cell-associated ligand were plotted against time. […]

Molecule: RAP: LRP1 chaperone of 39-kDa, model extracellular ligand for LRP1; labeled with Alexa-488 for uptake
- affinity of RAP binding to LRP1 (LRP1): high affinity

Molecule: Aβ42: Unlabeled synthetic Aβ42 obtained from Bachem
- cell viability (reduction of MTS dye) (N2a-mLRP4 cells): slight yet significant decrease; also recorded: Decreased viability

B1: ^125I-RAP: iodinated RAP protein used at 5 nM for kinetic analysis of endocytosis (protein, UniProt P30533 35-357, looked up)
Alpha-2-macroglobulin …: YSREKNQPKPSPKRESGEEFRMEKLNQLWEKAQRLHLPPVRLAELHADLKIQERDELAWKKLKLDGLDEDGEKEARLIRNLNVILAKYGLDGKKDARQVTSNSLSGTQEDGLDDPRLEKLWHKAKTSGKFSGEELDKLWREFLHHKEKVHEYNVLLETLSRTEEIHENVISPSDLSDIKGSVLHSRHTELKEKLRSINQGLDRLRRVSHQGYSTEAEFEEPRVIDLWDLAQSANLTDKELEAFREELKHFEAKIEKHNHYQKQLEIAHEKLRHAESVGDGERVSRSREKHALLEGRTKELGYTVKKHLQDLSGRISRARHNEL
modifications: 125I-labeled
notes: iodinated RAP protein used at 5 nM for kinetic analysis of endocytosis
- endocytosis rate for 125I-RAP in N2a-mLRP4-Tless vs N2a-mLRP4 cells (N2a-mLRP4-Tless cells): decreased
